Assay results as given in the nanobody polyreactivity screen of Harvey et al. (2022).

Experiment: yeast display, Sf9 membrane polyspecificity reagent, FACS + sequencing; frameworks hold sequencing errors
Method in brief: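 Polyreactivity labels are assigned by the sorting gate from which each nanobody was recovered. The gates were low and high (top ~1%), set on anti-HA fluorescence for expression and streptavidin fluorescence for reagent binding. Before sorting, galactose-induced (36–48 hours) yeast display cells were stained for 1 hour at 4 °C with 10% biotinylated, detergent-solubilized Sf9 membrane reagent.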

| Sequence | polyreactivity (PSR sort gate) |
| --- | --- |
| QVQLQESGGGLVQAGGSLRLSCAASCTISQEDWMGWYRQAPGKEREFVAAIGLGSNTNYADSLKGRFTISRDNAKNTVYLQMNSLKPEDTAVSYCAVSVWQYSDHVYRGQGTQVTVSS | low polyreactivity |
| QVQLVESGGGLVQAGGSLRLSCAASGPTFYYYDMGLYRPAPGKERELVAAISATGGRTYYADSVKGRFTISRDNAKNTVYLQMNSLKPEDTAVYYCAAETPYLRRRLGMDYWGQGTQVTVSS | high polyreactivity |
| QVQLVESGGGLVQAGGSLRLSCAASGRTFRINAMGWYRQAPGKERELVAAITRGDTNYADSVKGRFTISRDNAKNTVYLQMNSLKPEDTAVYYCNADLSVRYPVFRELDYWGQGTQVTVSS | low polyreactivity |
| QVQLVESGGGLVQAGGSLRLSCAASGITSSYAMGWYRQAPGKERELVAAISRGGSTYYADSVKGRFTISRDTAKNTVYLQMNSLKPEDTAVYYCNKRRYPYGWGQGTQVTVSS | high polyreactivity |
| QVQLVESGGGLVQAGGSLRLSCAASGSTFAWYAMGWYRTAPGKERELVAAISRTGRTYYADSVKGRFTMSRDNAKNTVYLQMNSLKPEDTAVYYCAARIERFYRDQRYDYWGQGTQVTVSS | high polyreactivity |
| QVQLVESGGGLVQAGGSLRLSCAASGYIFSYNAMGWYRQAPGKERELVAAITASGGGTYYADSVKGRFTISRDNAKNTVYLQMNSLKPDDTAVYYCAATPYSTQGLRPKFDYWGQGTQVTVSS | low polyreactivity |
| QVQLVESGGGLVQAGGSLLLSCAASGFNFTYYTMGWYRQAPGKERELVAAISYSGGSTYYAESVKGRFTISRDNAKNSVYLQMNSLKPEDTAVYYCAVRVSDKYISKRFEYWGQGTEVTVSS | high polyreactivity |
| QVQLVESVGGLVQAGASLRLSCAASGSTFDYYAMGSYRQAPGKERELVAAISRTGGRTYYADSVKGRFTISRDNAKNTVYLQMNSLKPEDTAVYYCNAVTRIGGGDYDYWGQGTQVTVSS | low polyreactivity |
| QVQLVESGGGLVQAGGSLRLSCAASGRTFFWYAMGWYRQAPGKERELVAAISSSTRTKYADSVKGRFTISRDNAKNTVYLQMNSLKPEDTAVYYCNAKGWVWPFPSYYPYDSWGQGTQVTVSS | high polyreactivity |
| QVQLVESGGGLVQAGGSLRLSCAASGNTFYINAMGWYRQAPGKERELVAAINYSGDSTYADSVKGRFTITRDNAKNTFYLQMNSLKPEDTAVYYCAADTGWYDDWTHDYWGHGTQVTVSS | low polyreactivity |
| QFQLVESGGGLVHAGGSLRLICAASGRILYKYAMGWYRQAPGKERELVAAISGSGGRTYYADSVKGRFTISRDNAKNTVYLQMNSLKPEDTPVYYCAAVHPFRHVMYDYWGQGTQVTVSS | low polyreactivity |
| QAQLQESRGSVVQAGLGLRLSCAASGYISVGSVMGWYRQAPSKERELVASIDQGANTNYADSVKGRFTISRDNAKNNVYLQMISLKPEDTEVYYCATETTYILNYWGQGSQVTVSS | low polyreactivity |
| QVQLVESGGGLLQAGGSLRLSCAASGRTFVWNAKGWYRQAPGKERELVAPITNDGSTNYADSVKGRFTISRDNAKNTVYLQMNSLKPEDTAVYYCAKRPRGSRIVPGGYDSWGQGTQVTVSS | low polyreactivity |
| PVQLVESGGGLVQAGGSLRISCAASGRSFYVYAMGWYRQAPGKEREFVARITSNGGSPTYADSVKGRFTISRDKAKNTVYLQMNSLKPEDTAVYYCNADDGIHPNASPSFPQYDYWGPGTQVTVSS | low polyreactivity |
| QVQLVESGGGLVQAGGSLRLSCADSGFTFSLNTMGWYRQAPGKERELVAAINSGDSTYADSVKGRFTISRDNAKNTVYLQMNSLKPEDTAVYYCNADPDWWYPYIYWGQGTQVTVSS | low polyreactivity |
| QVQLVESGGGLLQAGGSLRLSCAASGYTFWLYAMGWYRQAPGKDRELVATISRRAGTTYYADSVKGRFTISRDNAKNTVYLQMNSLKPEDTAVYYCAKKSHSLLGQYGEDYDYWGQGTQVTVSS | low polyreactivity |
| QVQLVESGGGLVQAGGSLRLSCAASGRTITWNAMGWYRQAPGKERELVADITNNGGSTYYADSVKGRFTISRDNAKNTVYLQMNSLKPEDTAVYYCAKRRNYWFSFDYWGQGTQVTVSS | low polyreactivity |
| QVQLVESGGGLVQAGGSLRLSCADSGFIFVDYVMGWYRQSPGKERELVASISASGGTTYYADSVKGRLTISLDNAKNTVYLQMNSLKPEDTAVYYCNARWSPVNLRYGREGDYWGQGTQVTVSS | high polyreactivity |
| QVQLVESGGGLVQAGGSLRLSSAASGFTFSGYAMGWYRQAPVKERELVAAISSSGASTYYADSVKGRFTISRDNAKNTVYLQIHSLKPEDTAVYYCAAGTRLSDGYYWGQGTQVTVSS | high polyreactivity |
| QVQLVESGGGLVQAGGSLRLSCAASGRIFAYYAKGWYRQAPGKERELVAAISRSGVSTYYADSVKGRFTISRDNAKNTVYLQMNSLKPEDTAVYYCAARWRSGFTSGDYWGQGTQVTVSS | low polyreactivity |
| QDQHVESGGGLVQAGGRLRLICAASGGNFTKNAMGWYRQAPGKERELVAGISRTGGNTYYADSVKGRFTISRDNAKNTVYLQMNSLKPDDTAVYYCNALYGGPHRLRYDYWGQGTQVTVSS | low polyreactivity |
